From paper PMC4118853, “Phage Orf Family Recombinases: Conservation of Activities and Involvement of the Central Channel in DNA Binding” (PLoS ONE, 2014) come the findings set out here.

Changes are numbered by the printed parent chain.

For data set [1], the target named is T1, MBP-YbcN (Escherichia coli cryptic prophage DLP12 …, UniProt Q47269 1-151).
T1 sequence: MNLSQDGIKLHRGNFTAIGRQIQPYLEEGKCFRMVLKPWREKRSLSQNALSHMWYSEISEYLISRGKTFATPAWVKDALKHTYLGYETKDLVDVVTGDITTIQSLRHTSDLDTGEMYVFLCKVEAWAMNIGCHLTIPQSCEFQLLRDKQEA
The experiment in a line: EMSA; 5 mM EDTA; lower affinity than MBP-Orf; EMSA: 50 mM Tris-HCl pH 8.0, 5 mM EDTA (or 1 mM MgCl2), 1 mM DTT, 5% glycerol, 100 ug/ml BSA, on ice 15 min, 4% PAGE; anisotropy: 100 mM Tris-HCl pH 7.0, 10 nM. The note with it: protein: recombinant; tags: N-terminal MBP; chain copies: 2; label: 5'-32P; single strand.

The target in the next data set is T2, MBP-Orf R103E (Bacteriophage lambda, UniProt P03765 1-146, R103E).
T2 sequence: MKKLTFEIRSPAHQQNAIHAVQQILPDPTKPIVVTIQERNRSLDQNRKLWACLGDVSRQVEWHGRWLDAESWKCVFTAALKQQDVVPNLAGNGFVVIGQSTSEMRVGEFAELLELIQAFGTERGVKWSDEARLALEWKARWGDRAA
The experiment in a line: EMSA; 5 mM EDTA; up to 500 nM; EMSA: 50 mM Tris-HCl pH 8.0, 5 mM EDTA (or 1 mM MgCl2), 1 mM DTT, 5% glycerol, 100 ug/ml BSA, on ice 15 min, 4% PAGE; anisotropy: 100 mM Tris-HCl pH 7.0, 10 nM. To be noted: protein: recombinant; tags: N-terminal MBP; chain copies: 2; label: 5'-32P; single strand.

The target in data set [2] is T3, MBP-Orf (Bacteriophage lambda, UniProt P03765 1-146).
T3 sequence: T2 sequence with E103R
The experiment in a line: EMSA; 5 mM EDTA; EMSA: 50 mM Tris-HCl pH 8.0, 5 mM EDTA (or 1 mM MgCl2), 1 mM DTT, 5% glycerol, 100 ug/ml BSA, on ice 15 min, 4% PAGE; anisotropy: 100 mM Tris-HCl pH 7.0, 10 nM. The note with it: protein: recombinant; tags: N-terminal MBP; chain copies: 2; label: 5'-32P; single strand.

For data set [3], the target named is T1, MBP-YbcN. The data set can be described thus: EMSA; 5 mM EDTA; three complexes; EMSA: 50 mM Tris-HCl pH 8.0, 5 mM EDTA (or 1 mM MgCl2), 1 mM DTT, 5% glycerol, 100 ug/ml BSA, on ice 15 min, 4% PAGE; anisotropy: 100 mM Tris-HCl pH 7.0, 10 nM. The note with it: protein: recombinant; tags: N-terminal MBP; chain copies: 2; label: 5'-32P on strand 1; blunt.
The target in data set [4] is T1, MBP-YbcN. The experiment in a line: EMSA; 5 mM EDTA; no preference over DS60; EMSA: 50 mM Tris-HCl pH 8.0, 5 mM EDTA (or 1 mM MgCl2), 1 mM DTT, 5% glycerol, 100 ug/ml BSA, on ice 15 min, 4% PAGE; anisotropy: 100 mM Tris-HCl pH 7.0, 10 nM. To be noted: protein: recombinant; tags: N-terminal MBP; chain copies: 2; label: 5'-32P on strand 1; blunt, central single G:G mismatch.

The target in data set [5] is T3, MBP-Orf. The data set can be described thus: fluorescence anisotropy; some preference over duplex control; data varied; EMSA: 50 mM Tris-HCl pH 8.0, 5 mM EDTA (or 1 mM MgCl2), 1 mM DTT, 5% glycerol, 100 ug/ml BSA, on ice 15 min, 4% PAGE; anisotropy: 100 mM Tris-HCl pH 7.0, 10 nM. The note with it: protein: recombinant; tags: N-terminal MBP; chain copies: 2; label: 3'-fluorescein on strand 1; blunt, central single T:G mismatch.

B1: SS50 (ssDNA)
DNA: GGCGACGTGATCACCAGATGATTGCTAGGCATGCTTTCCGCAAGAGAAGC
Turning to B1, the binding result with MBP-YbcN [1] is “binds”; with MBP-Orf R103E, “no binding”; with MBP-Orf [2] it was “binds”.

B2: DS60 (dsDNA)
DNA 1: TTTGGTCTAACTTTACCGCTACTAAATGCCGCGGATTGGTTTCGCTGAATCAGGTTATTA
DNA 2: TAATAACCTGATTCAGCGAAACCAATCCGCGGCATTTAGTAGCGGTAAAGTTAGACCAAA
For B2, the binding result in the data set with MBP-YbcN [3] is given as “binds”.

B3: MMG:G (dsDNA)
DNA 1: B2 DNA 1
DNA 2: B2 DNA 2 with C28G
B3: the binding result in the data set with MBP-YbcN [4] was “binds”.

B4: MMT:G-fluorescein (dsDNA)
DNA 1: B2 DNA 1
DNA 2: B2 DNA 2 with C28T
Consider B4, for which the binding result with MBP-Orf [5] is given as “binds”.
